Measured values reported in US11994512B2, “Single-cell genomic methods to generate ex vivo cell systems that recapitulate in vivo biology with improved fidelity” (Massachusetts Institute of Technology, priority 2018, dated 2024).

Tested on: intracellular proteome of ENR+CD and ENR organoids
Experiment: LC-MS/MS TMT proteomics of ENR+CD versus ENR organoids
Type: cell-based, C57BL/6 mice
Conditions: for Average logFC: ENR+CD versus ENR organoids, sample pairs in aggregate (n=4, 2 technical replicates from two biological donors); for M1-1 Log2 Median Normalized / M1-2 Log2 Median Normalized / M2-1 Log2 Median Normalized / M2-2 Log2 Median Normalized: protein abundance ratio ENR+CD versus ENR organoids, LC-MS/MS TMT proteomics; for M1-1 Log2 Median Normalized: sample pair M1-1; for M1-2 Log2 Median Normalized: sample pair M1-2; for M2-1 Log2 Median Normalized: sample pair M2-1; for M2-2 Log2 Median Normalized: sample pair M2-2; for change: up = enriched in ENR+CD, down = enriched in ENR, FDR<0.05 and log fold change cut-off

Molecule	Average logFC	M1-1 Log2 Median Normalized	M1-2 Log2 Median Normalized	M2-1 Log2 Median Normalized	M2-2 Log2 Median Normalized	change
Q52KI8 (protein, UniProt Q52KI8 1-946, looked up, full-length) MDAGFFRGTSAEQDNRFSNKQKKLLKQLKFAECLEKKVDMSKVNLEVIKPWITKRVTEILGFEDDVVIEFIFNQLEVKNPDSKMMQINLTGFLNGKNAREFMGELWPLLLSAQENIAGIPSAFLELKKEEIKQRQIEQEKLASLKKQDEDKDKRDKEEKESSREKRERSRSPRRRKSRSPSPRRRSSPVRRERKRSHSRSPRHRTKSRSPSPAPEKKEKSPELPEPSVRMKDSSVQEATSTSDILKAPKPEPVPEPKEPSPEKNSKKEKEKTRPRSRSRSKSRSRTRSRSPSHTRPRRRHRSRSRSYSPRRRPSPRRRPSPRRRTPPRRMPPPPRHRRSRSPGRRRRRSSASLSGSSSSSSSSRSRSPPKKPPKRTSSPPRKTRRLSPSASPPRRRHRPSSPATPPPKTRHSPTPQQSNRTRKSRVSVSPGRTSGKVTKHKGTEKRESPSPAPKPRKVELSESEEDKGSKMAAADSVQQRRQYRRQNQQSSSDSGSSSTSEDERPKRSHVKNGEVGRRRRHSPSRSASPSPRKRQKETSPRMQMGKRWQSPVTKSSRRRRSPSPPPARRRRSPSPAPPPPPPPPPPRRRRSPTPPPRRRTPSPPPRRRSPSPRRYSPPIQRRYSPSPPPKRRTASPPPPPKRRASPSPPPKRRVSHSPPPKQRSPTVTKRRSPSLSSKHRKGSSPGRSTREARSPQPNKRHSPSPRPRAPQTSSPPPVRRGASASPQGRQSPSPSTRPIRRVSRTPEPKKIKKTAMATQRNIRRVSKSPKADSLSRAASPSPQSVRRVSSSRSVSGSPEPAAKKPPAPPSPVQSQSPSTNWSPAVPAKKAKSPTPSLSPARNSDQEGGGKKKKKKKDKKHKKDKKHKKHKKHKKEKAVTIATPATAAPAAVSAATTTSAQEEPAAAPEPRKETESEAEDDNLDDLERHLREKALRSMRKAQVSPQS	−1.144	−1.036	−0.819	−1.2825	−1.437	down
Q60604 (protein, UniProt Q60604 1-715, looked up, full-length) MAQELQHPEFARAGQQAGLQVWRVEKLELVPVPQGAYGDFYVGDAYLVLHTTKSSRGFSYRLHFWLGKECSQDESTAAAIFTVQMDDYLGGKPVQSRELQGYESTDFVGYFKGGLKYKAGGVASGLNHVLTNDLTAKRLLHVKGRRVVRATEVPLSWESFNKGDCFIIDLGTEIYQWCGSSCNKYERLKASQVAIGIRDNERKGRSQLIVVEEGSEPSELMKVLGRKPELPDGDNDDDVVADISNRKMAKLYMVSDASGSMKVTLVAEENPFSMGMLLSEECFILDHGAAKQIFVWKGKNANPQERKTAMKTAEEFLQKMKYSTNTQIQVLPEGGETPIFKQFFKDWKDKDQSDGFGKVYITEKVAQIKQIPFDASKLHSSPQMAAQHNMVDDGSGGVEIWRVENSGRVQIDPSSYGEFYGGDCYIILYTYPRGQIIYTWQGANATRDELTMSAFLTVQLDRSLGGQAVQVRVSQGKEPAHLLSLFKDKPLIIYKNGTSKKEGQAPAPPTRLFQVRRNLASITRIVEVDVDANSLNSNDTFVLKLPRNNGFIWIGKGASQEEEKGAEYVADVLKCKASRIQEGKEPEEFWNSLGGRGDYQTSPLLETRAEDHPPRLYGCSNKTGRFIIEEVPGEFTQDDLAEDDVMLLDAWEQIFIWIGKDANEVEKKESVKSAKMYLETDPSGRDKRTPIVIIKQGHEPPTFTGWFLGWDSSRW	−1.3	−1.236	−2.062	−1.8295	−0.073	down
Q5HZI2 (protein, UniProt Q5HZI2 1-419, looked up, full-length) MRKTNMWFLERLRGSGENGASRGEAGDKSSKGPLYSNVLTPDKIPDFFIPPKLPSGPTEAEGQADLGPSTSEQNLASPGPRRAPRSPRLPAKLASESRSLLKAATRHVIQIESAEDWTAEEATNADPQAQGAMSLPSVPKAQTSYGFATLAESPHTRRKESLFHSEHGALAQVGSPGAGRRRAGAKGNGGDGGSREVGGALMSPSRYFSGGESDTGSSAESSPFGSPLLSRSVSLLKGFAQDSQAKVSQLKQSVGRHGSLSADDSTPDTSPGVRRRLSRRATPEPGPESGQAPRGEHTVKMGTRGSVRLLAEYEAAQARLRVRLLAAEGLYDRPCDARSINCCVGLCLVPGKLQKQRSTIIKNSRHPIFNEDFFFDGLGPASVRKLALRIKVVNKGSSLKRDTLLGEEELPLTSLLPFL	1.158	0.822	0.518	1.5305	1.762	up
Q4VAH7 (protein, UniProt Q4VAH7 1-463, looked up, full-length) MGQDAFMELLRSMVGLSLCKIHLLLIAGSCLGLKVTVPSYTVHGIRGQALYLPVHYGFHTPASDIQIIWLFERSHTMPKYLLGSVNKSVVPDLEYQHKFTMMPPNASLLINPLQFTDEGNYIVKVNIQGNGTLSASQKIQVTVDDPVMKPMVQFHPASGAVEYVGNITLTCQVEGGTRLVYQWRKSGKPISINSSHSFSPQNNTLWIVPVTKEDIGNYTCLVSNPVSEMESDIIMPTIYYGPYGLQVNSDKGLKVGEVFTVDLGEAVLFDCSADSYPPNTYSWIQRSDNTTHVIKHGPHLEVASEKVAQKTADYVCCAYNNITGRRDETRFTVIITSVGLEKLAQRGKSLSPLASITGISLFLIISMCLLFLWKKYQPYKAIRQKLEGRPESEYRKAQTFSGHEDALSDFGIYEFVTFPDASGVSRMSSRSSPASDGVTGQDIHGTIYEVIQHIPEQQQENTE	1.418	1.047	1.639	1.2475	1.739	up
Q571E4 (protein, UniProt Q571E4 1-520, looked up, full-length) MAACTAAQQLLLVLSALGLLAAGAPQPPNIVLLLMDDMGWGDLGVNGEPSRETPNLDRMAAEGMLFPSFYSANPLCSPSRAALLTGRLPIRNGFYTTNAHARNAYTPQEIMGGIPNSEHLLPELLKKAGYTNKIVGKWHLGHRPQFHPLKHGFDEWFGSPNCHFGPYDNKAKPNIPVYRDWEMVGRFYEEFPINRKTGEANLTQLYTQEALDFIQTQHARQSPFFLYWAIDATHAPVYASRQFLGTSLRGRYGDAVREIDDSVGKILSLLQNLGISKNTFVFFTSDNGAALISAPNEGGSNGPFLCGKQTTFEGGMREPAIAWWPGHIAAGQVSHQLGSIMDLFTTSLSLAGLKPPSDRVIDGLDLLPTMLKGQMMDRPIFYYRGNTLMAVTLGQYKAHLWTWTNSWEEFTQGTDFCPGQNVSGVTTHTQEEHTELPLIFHLGRDPGERFPLSFHSDEYQDALSRTTQVVQEHQKSLVPGQPQLNVCNQAVMNWAPPGCEKLGKCLTPPESVPEKCFWAH	1.207	1.473	0.565	1.3465	1.206	up
Q5DQR4 (protein, UniProt Q5DQR4 1-1185, looked up, full-length) MKKFNFRKVLDGLTASSPGSGSSSGSNSGGAGSGSVHPGGTAGLPREEIQESLTSDYFQICKTVRHGFPYQPTALAFDPVQKILAIGTRTGAIRILGRPGVDCYCQHESGAAVLQLQFLINEGALVSASSDDTLHLWNLRQKRPAILHSLKFNRERITYCHLPFQSKWLYVGTERGNTHIVNIESFILSGYVIMWNKAIELSTKTHPGPVVHLSDSPRDEGKLLIGYENGTVVFWDLKSKRAELRVYYDEAIHSIDWHHEGKQFMCSHSDGSLTLWNLKSPSRPFQTTVPHGKSQREGRKSESCKPILKVEYKTCRNSEPFIIFSGGLSYDKACRRPSLTIMHGKAITVLEMDHPIVEFLTLCETPYPNEFQEPYAVAVLLEKDLIVVDLTQTNFPIFENPYPMDIHESPVTCTAYFADCPPDLILVLYSIGVKHKKQGYSNKEWPVSGGAWNLGAQTYPEIIITGHADGTIKFWDASAMTLQMLYKLKTSKVFEKQKAGEGKQTCELVEEDPFAVQMIYWCPESRIFCVSGVSAYVIIYKFSRHEVTTEIVSLEVRLQCDVEDIITPEPETSPPFPDLSSQLPPSRSLSGSTNTVSSEGVTKDSIPCLSVKTRPVRMPPGYQADLVIQLVWVDGEPPQQITSLSISSAYGIVAFGNCTGLVVVDFIQKTVLLSMGTIDLYRSSDLYQRQPRSPRKNRQFIADNFCMRGLSNFYPDLTKRIRTSYQSLTELNDSPVPLELERCKSPTSDHVNGHCTSPTSQSCSSGKRLSSADVSKVNRWGPGRPPFRKAQSAACMEISLPVTTEETRENSYNRSRSSSISSIDKDSKEAITALYFMESFARKNDSTVSPCLFVGTSLGMVVLISLNLPSSDEQRFTEPVVVLPSGTFLSLKGAVLTFSCMDRTGSLMQPPYEVWRDPNNTDENEKTWKRKLVMNYSSSSQEMGDHQYTIICSEKQAKVFSLPSQTCLYVHNITETSFILQADVVVMCNSACLACFCANGHIMIMSLPSLRPMLDVNYLPLTDMRIARTFCFTNEGQALYLVSPTEIQRLTYSQEMCDNIQDMLGDLFTPIETPEAQNRGFLKGLFGGSGQTFDREELFGEASAGKASRSLAQHIPGPGSIEGMKGAAGGVMGELTRARIALDERGQRLGELEEKTAGMMTSAEAFSKHAHELMLKYKDKKWYQF	1.147	1.316	0.966	1.1715	1.133	up
